For data set [1], the system named is E. coli (ATCC 25922). Briefly: Antibiotic inactivation screening assay via E. coli growth (96 well plate, OD625). Format: cell-based. The note with it: for activity against cephalosporins and carbapenems / antibiotic degradation profile compared with P3A: 10, 100 or 1000 ng/ml enzyme; for inhibition by beta-lactamase inhibitors: SAM, TZP, CAZ/AVI combinations; for degradation of carbapenems: meropenem, imipenem, ertapenem, doripenem. Here is the method:
To mimic the activity of the carbapenemase enzymes, P2A, NDM, and KPC in the gut in the presence of high antibiotic concentrations, a novel screening assay was performed using a 96 well plate format. The assay was performed by mixing 10, 100 or 1000 μg/ml of the antibiotics, AMP: ampicillin, SAM: ampicillin/sulbactam, PIP: pipercillin, TZP: pipercillin/taxobactam, CRO: ceftriaxone, CTX: cefotaxime, CFZ: cefozolin, CXM: cefuroxime, CFP: cefoperazone, FEP: cefepime, CAZ: ceftazidime, MEM: meropenem, IPM: imipenem, ERT: ertapenem, DOR: doripenem, ATM: aztreonam, CDR: cefdinir; LEX: cephalexin; and CAZ/AVI: […]/avibactam with purified P2A, NDM, KPC, and P3A at concentrations of 10, 100, or 1000 ng/ml in each well of a 96 well microtiter plate. E. coli (ATCC 25922) was added immediately after the addition of the beta-lactamase enzymes, and the plates were incubated overnight. Bacterial growth was quantified by measuring the absorbance at 625 nm (OD625) in a Spectramax 384 Plus plate reader. The analysis was performed twice for each antibiotic. The beta-lactamase activity was determined as positive or negative based on the appearance of bacterial growth in the individual wells. An OD625 of 1.0 or greater indicated maximal bacterial growth, therefore complete antibiotic degradation and beta-lactamase activity. […] FIGS. 21A, 21B, and 21C display the comparison of the four beta-lactamases, P3A (SYN-004), P2A, NDM, and KPC with all 16 antibiotics at beta-lactamase concentrations of 10, 100, or 1000 ng/ml. […]

Data set [2] can be described thus: CENTA chromogenic beta-lactamase biological activity assay (P3A standard curve). The class given is biochemical. To be noted: for stability of enzyme activity in cell lysates under differing storage conditions: fresh, frozen (−80° C.) or overnight at 4° C. lysate; for relative potency for CENTA degradation: midpoint of sigmoid curve, protein concentration vs OD405, P3A=1.0; for β-Lactamase: purified carbapenemase, P3A standard. On the procedure:
Biological activity of the carbapenemases, P2A, NDM, and KPC, present in the E. coli cell lysates were evaluated in a microtiter plate assay using CENTA as the chromogenic substrate (Bebrone et al. Antimicrob. Agents Chemother (2001) 45:1868-1871; van Berkel et al., J. Med. Chem. (2013) 56:6945-6953). Briefly, the assay was performed in a 50 mM NaH2PO4 buffer, pH 7.0 with supplementation of 100 uM ZnSO4, with CENTA (Calbiochem Cat #219475) at 50 ug/ml. The assays were run using purified P3A protein for the standard curve at protein concentrations of 0 ng/ml, 3 ng/ml, 6 ng/ml, 8 ng/ml, 10 ng/ml, 15 ng/ml, 20 ng/ml and 40 ng·ml. The plates were read at 405 nm after a 30 minute incubation using a microtiter plate reader. Cell lysates from the bacterial strains showing the highest protein expression levels by SDS-PAGE were evaluated for biological activity, which included P2A strains 5, 15, 20, 21, and 23, NDM strains 53, 58, 63, 68, and 69, and KPC strains 94, 96, 99, 100, 101, 102, 103, and 104 (Table 11). In addition, fresh lysate, frozen (−80° C.) lysate, or lysate stored overnight at 4° C. from strain P2A-21 were compared, and fresh and frozen (−80° C.) lysates from strain NDM-63 were compared to assess the stability of enzyme activity under differing storage conditions. All other lysates were kept frozen at −80° C. until assayed (Table 11).
Bacterial lysates were analyzed for protein expression by SDS-PAGE. Strong NDM expression was detected in all strains with good reproducibility between shake flasks (FIG. 4). Strong expression of P2A and KPC was also detected with good reproducibility between shake flasks (FIG. 5). In all cases, the vast majority of the protein was detected in the soluble fractions (FIG. 4 and FIG. 5). Biological activity was assessed in the cell lysates using the CENTA assay as described with P3A as the standard. […] The highest biological activity for NDM was from strain NDM-68.
Aliquots of bacteria were collected early in the fermentation cycle, 16 hours, for P2A and NDM, and 32 hours for KPC, prior to enzyme expression induction, and late in the cycle (48 hours) and subjected to SDS-PAGE (FIG. 6 and FIG. 7) and biological activity analyses (Table 15). […] Fermenters A, B, and C, reached high ODs. […] Bioreactor expression is achieved by changing of growth conditions, lowering phosphate conditions, and/or changing the promoter.
Frozen cell pellets retained from the fermenter studies, Fermenter A, P2A, Fermenter B, NDM, or from the shake flask studies, shake flask A, KPC, were lysed at 3×7000 psi in a Panda table top cell homogenizer. The lysate was spun at 45000 g for 1 hour, supernatants collected and pH adjusted to 5.5 with 1 M MES. The supernatants were spun at 45000 g for 30 minutes, to remove precipitated debris and filtered through a 0.45 um filter. The filtered supernatants were subjected to cation-exchange chromatography using an SP-sepharose column. NDM was subjected to an additional purification step using a hydrophobic column, phenyl sepharose. The fractions containing the peak levels of protein were concentrated and dialyzed against a 20 mM HEPES, pH 7.5, 150 mM NaCl buffer. The P2A and NDM samples were supplemented with 100 uM ZnSO4 in all steps of the purification process. Purified enzymes yields were calculated to be approximately 600 mg of protein per liter. Purified proteins were analyzed by SDS-PAGE (FIG. 8) and for biological activity (Table 16).
As different beta-lactamase enzymes display differential affinity and kinetics with diverse substrates, including antibiotics and the CENTA reagent, it was possible to determine the relative specific activities of P2A, NDM, and KPC compared to P3A for CENTA as a substrate now that purified proteins were available and therefore, protein concentrations were known. […]

The nature of data set [3]: Oral P2A and intravenous meropenem in jejunal-fistulated dogs. The class given is in vivo, laboratory beagles. Here is the method:
The ability of P2A to degrade meropenem in the dog intestinal tract was evaluated using laboratory beagles that had permanent jejunal fistulas. The fistulas allowed the repeated collection of jejunal chyme specimens from these animals. Dogs were treated with peroral P2A (1 mg/kg) in a liquid formulation (PBS buffer), and/or intravenous meropenem (30 mg/kg). Serum samples were collected and serum meropenem levels quantified. Jejunal chyme samples were collected and meropenem and P2A levels were quantified. Meropenem levels in serum and chyme were measured using a plate diffusion method using meropenem susceptible Micrococcus luteus TS504 as the test strain. P2A activity levels in chyme were determined spectrophotometrically using meropenem as a substrate. Meropenem hydrolysis was monitored at a wavelength of 297 nm.

The mark [4] stands for this setting: fermenter cell lysate, 16 hr, Bioreactor A or B (standard phosphate).
The mark [5] stands for this setting: fermenter cell lysate, 48 hr, Bioreactor A, B or D (standard phosphate).
Where [6] appears, read: peak level in dog jejunum, meropenem 30 mg/kg IV + P2A 1 mg/kg PO, individual dogs.
Where [7] appears, read: peroral P2A 1 mg/kg, intravenous meropenem 30 mg/kg.

Values joined by “and” are separate entries in the source; they are usually repeats but may differ in a detail not shown here. Equal entries are not always repeated. “Also recorded” adds a separate entry of the source.

B1: P2A: broad spectrum carbapenemase, class B metallo-enzyme requiring zinc, SEQ ID NO: 37; P2A-21 = product of strain SYT-PP0602-21 (protein)
chain: ETGTISISQLNKNVWVHTELGYFNGEAVPSNGLVLNTSKGLVLVDSSWDNKLTKELIEMVEKKFQKRVTDVIITHAHADRIGGITALKERGIKAHSTALTAELAKNSGYEEPLGDLQTITSLKFGNTKVETFYPGKGHTEDNIVVWLPQYQILAGGCLVKSAEAKDLGNVADAYVNEWSTSIENVLKRYGNINSVVPGHGEVGDKGLLLHTLDLLK
B1: in data set [1], the “activity against cefepime and ceftazidime compared to NDM” value was “activity was reduced against the cephalosporins, cefepime and ceftazidime”; the “activity against cephalosporins and carbapenems” value was “good activity against all carbapenems and most cephalosporins”; the “antibiotic degradation profile compared with P3A” value was “broader degradation profile than P3A”; the “inhibition by beta-lactamase inhibitors” value was “resistant to inhibition by sulbactam, tazobactum, and avibactam”. Moreover, the degradation of carbapenems result in data set [1] is “efficiently degraded meropenem, imipenem, ertapenem, and doripenem”. In addition, the Activity in data set [2] (bacterial cell lysate, shake flask culture, Flask A, CENTA, P3A as the standard) is recorded as 19.6 mg/L. The Activity in data set [2] (bacterial cell lysate, shake flask culture, Flask B, CENTA, P3A as the standard) is reported as 17.0 mg/L. In data set [2] (setting [4]), this molecule returned an Activity of 3.2 mg/L. Further, the Activity in data set [2] (setting [5]) amounted to 59.7 mg/L. Besides, in data set [2], the “stability of enzyme activity in cell lysates under differing storage conditions” value is “No difference in activity” and the “relative potency for CENTA degradation” value is 0.12. The molecule also came in with a β-Lactamase in data set [2] (CENTA) of 317.7 mg/L. Moreover, the “jejunal P2A concentration at which meropenem was not detected” value in data set [3] (intestinal samples, dogs) is recorded as “at least 0.5 U/g”. Further, in data set [3] (setting [6]), the “Meropenem” value was 0 ug/ml (2×) and 2.0 ug/ml; the “P2A (U/g)” value was 0.5 U/g and 0.2 U/g and 80 U/g. For the same molecule, in data set [3] (setting [7]), the “effect on serum levels of meropenem” value is on record as “does not reduce serum levels of meropenem” and the “meropenem in jejunal chyme” value is recorded as “degraded meropenem”.

B2: NDM: New Delhi metallo-β-lactamase NDM-1; NDM-68 = product of strain STY-NP1602-68 (STII Δ35, N-terminal GQQMETG) (protein)
chain: GQQMETGDQRFGDLVFRQLAPNVWQHTSYLDMPGFGAVASNGLIVRDGGRVLVVDTAWTDDQTAQILNWIKQEINLPVALAVVTHAHQDKMGGMDALHAAGIATYANALSNQLAPQEGMVAAQHSLTFAANGWVEPATAPNFGPLKVFYPGPGHTSDNITVGIDGTDIAFGGCLIKDSKAKSLGNLGDADTEHYAASARAFGAAFPKASMIVMSHSAPDSRAAITHTARMADKLR
As for B2, in data set [1], the “activity against cephalosporins and carbapenems” value is “efficiently degraded all tested cephalosporins and carbapenems”; the “antibiotic degradation profile compared with P3A” value is on record as “broader degradation profile than P3A”; the “inhibition by beta-lactamase inhibitors” value was “resistant to inhibition by sulbactam, tazobactum, and avibactam; also recorded: least affected by sulbactam”; the degradation of carbapenems entry was “efficiently degraded meropenem, imipenem, ertapenem, and doripenem”. In addition, the Activity in data set [2] (setting [4]) worked out at 6.6 mg/L. Moreover, in data set [2] (fermenter cell lysate, 16 hr, Bioreactor C (extra zinc and extra phosphate)), the Activity is given as 5.8 mg/L. Moreover, the Activity in data set [2] (setting [5]) was found to be 520.0 mg/L. This molecule also gave an Activity in data set [2] (fermenter cell lysate, 48 hr, Bioreactor C (extra zinc and extra phosphate)) of 14.1 mg/L. Further, in data set [2], the “stability of enzyme activity in cell lysates under differing storage conditions” value was “No difference in activity” and the “relative potency for CENTA degradation” value was found to be 0.71. This molecule also showed a β-Lactamase in data set [2] (CENTA) of 1703.8 mg/L.

These data come from US11123413B2, “Carbapenemases for use with antibiotics for the protection of the intestinal microbiome” (priority 2015, dated 2021).
